This is an account of results in US20250276081A1, “Mucin-Active Proteases and Methods of Use” (priority 2022, published 2025).

Data set [1] has as its target T1, cell surface CD43 (K562, CCRF-CEM, CCRF-HSB-2 cells) (Homo sapiens, UniProt P16150).
T1 construct: endogenous in cells; host or cells: K562, CCRF-CEM, CCRF-HSB-2
T1 sequence (P16150 20-400): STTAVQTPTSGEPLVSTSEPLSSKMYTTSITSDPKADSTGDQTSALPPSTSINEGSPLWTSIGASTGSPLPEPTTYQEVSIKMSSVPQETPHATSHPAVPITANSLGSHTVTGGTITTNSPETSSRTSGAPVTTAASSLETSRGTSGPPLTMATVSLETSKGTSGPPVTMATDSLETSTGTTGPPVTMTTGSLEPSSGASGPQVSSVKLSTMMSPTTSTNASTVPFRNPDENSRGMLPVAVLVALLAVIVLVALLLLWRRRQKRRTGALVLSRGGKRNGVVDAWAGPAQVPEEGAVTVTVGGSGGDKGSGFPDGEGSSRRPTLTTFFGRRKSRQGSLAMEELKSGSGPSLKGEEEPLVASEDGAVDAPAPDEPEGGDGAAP
The data set can be described thus: CD43 flow cytometry of leukemia cell lines. The data set is classed as cell-based. The conditions noted are these: 50 nM StcE, 1 h. How it is done: CD43 and Siglec-7-Fc flow cytometry. 1×10^6 K562, CCRF-CEM, or CCRF-HSB-2 cells growing in log phase were harvested, resuspended in 1 mL of serum-free RPMI, and treated with either vehicle or 50 nM StcE for 1 h. Cells were subsequently spun down at 600× g and washed twice in PBS. Cells were then resuspended in FACS buffer (0.5% BSA in PBS) at 1×10^6 cells/mL and aliquoted into a V-bottom 96-well plate (Corning) at 1×10^5 cells/well. For staining, a precomplex solution of 1 μg/mL Siglec-7-Fc (R&D Systems) and 1 μg/mL Alexa Fluor 488-antihFc was made up in FACS buffer and incubated on ice for 1 h. Alexa Fluor 647 CD43/sialophorin antibody (MEM-59 clone) (Novus Biologicals) was subsequently added to the precomplex solution prior to staining. Cells were stained in 100 μL of staining solution for 30 min, washed twice with FACS buffer, and analyzed by flow cytometry using a BD Accuri C6 plus.

Data set [2] has as its target T2, cell surface mucins (CD43) on mixed K562^±HER2 cells (Homo sapiens, UniProt P16150).
T2 construct: endogenous in cells; host or cells: K562 and K562^HER2 (HER2 retrovirally transduced; CD43 endogenous)
T2 sequence (P16150 20-400): T1 sequence (P16150 20-400)
The data set can be described thus: K562 mixed cell CD43 cleavage assay. The format is cell-based. The conditions noted are these: 1 nM, overnight. Here is the method: K562 mixed cell CD43 cleavage assay. 2.5×10^5 K562 and K562^HER2 cells were allocated per well to a 96-well ultra-low attachment round bottom plate in 150 μL of complete media. 50 μL of mucinases in PBS were added to wells and the plate was incubated (overnight unless stated otherwise) at 37° C. Cells were washed twice with cold FACS buffer with 2 mM EDTA, once with cold FACS buffer, and stained with Alexa Fluor 488 anti-human CD340 (erbB2/HER-2) antibody (24D2 clone) (BioLegend) and Alexa Fluor 647 CD43/sialophorin antibody (MEM^−59 clone) (Novus Biologicals) in FACS buffer supplemented with 0.1% benzonase on ice protected from light. Cells were washed three times with cold FACS buffer with 2 mM EDTA and stained with 1 μM Sytox AADvanced (Thermo Fisher Scientific) or 1 μM Sytox Blue in FACS buffer with 2 mM EDTA for 5 min on ice prior to analysis using a BD Accuri C6 plus or MACSQuant Analyzer 10 Flow Cytometer (Miltenyi Biotec). Samples were compensated using single-stained controls in FlowJo v. 10.0. Unstained and PBS-treated samples were used to define 0% and 100% cell surface CD43, respectively, and each sample was normalized to percent CD43 within each replicate. Using GraphPad Prism 9, replicates were fitted to inhibitor concentration vs normalized response.

The test system of data set [3] is leukemia cell lines (K562, CCRF-CEM, CCRF-HSB-2). The data set can be described thus: NK cell killing assay with mucinase-treated leukemia cell lines. The format is cell-based, human. How it is done:
NK cell isolation. PBMC aliquots were quickly thawed and diluted in 10 mL of RPMI containing DNAase to break up cell aggregates. Cells were incubated at 5% CO2, 37° C. for 30 min and subsequently counted in duplicate. Cells were then spun down at 600× g and resuspended in RPMI to a final cell concentration of 50×10^6 cells/mL. Isolation of NK cells was performed according to manufacturer's instructions using an NK cell magnetic isolation kit (Stem Cell Technologies). NK cells were cultured for at least 24 h before conducting experiments. For killing experiments, NK cells were cultured for 24 h in complete media containing 0.2-0.5 μg/mL IL-2 (BioLegend).
NK cell killing assays. Target cells were harvested by centrifugation and resuspended in serum-free RPMI containing 5 μM Cell Tracker Far Red (Thermo Fisher Scientific) at 5×10^5 cells/mL. Cells were then incubated for 30 min at 37° C.; where indicated, cells were treated with […] StcE. Following staining and StcE treatment, cells were spun down, washed twice with PBS containing 1 mM EDTA, and resuspended in complete media. Cells were diluted to 1×10^5 cells/mL in complete media containing 100 nM Sytox Green, and 100 μL of cell suspension was aliquoted into a flat bottom 96-well plate. Separately, NK cells were diluted to various cell concentrations to generate the indicated effector: target ratios in complete media containing 100 nM Sytox Green. Where indicated, these cell suspensions were treated with 20 nM StcE for 30 min, washed twice with PBS containing 1 mM ETDA, and resuspended in complete media containing 100 nM Sytox Green. 100 μL of these cell suspensions was then mixed with the target cell suspensions to generate a total volume of 200 μL. Cells were incubated at 37° C. for 4 h and analyzed by flow cytometry.

Regarding “StcE: secreted protease of C1 esterase inhibitor, zinc metalloprotease pan mucinase from E. coli O157:H7; SEQ ID NO:1”, the “Cell surface CD43 level” value in data set [1] is recorded as “loss of cell surface CD43”. For the same substance, in data set [2], the “Removal of cell surface mucins on HER2- cells” value is reported as “complete removal” and the “Removal of cell surface mucins on HER2^+ cells” value is “complete removal”. The “NK cell killing after StcE treatment of the NK cells” value in data set [3] (NK cells treated with StcE) is on record as “no effect relative to untreated control”. In addition, the “NK cell killing of StcE-treated leukemia cells” value in data set [3] (target cells treated with StcE, 4 h with NK cells) is “increased NK cell surveillance”. For the same substance, the “Cytotoxicity of StcE treatment of leukemia cell lines” value in data set [3] (without NK cells, n=3) is “statistically significant baseline toxicity increase”.
